From article PMC2148189 (The Journal of Cell Biology, 1999)

T1: GST–ponsin-2-C (the COOH-terminal half) (mouse, UniProt Q62417-3 401-724)
T1 sequence (looked up): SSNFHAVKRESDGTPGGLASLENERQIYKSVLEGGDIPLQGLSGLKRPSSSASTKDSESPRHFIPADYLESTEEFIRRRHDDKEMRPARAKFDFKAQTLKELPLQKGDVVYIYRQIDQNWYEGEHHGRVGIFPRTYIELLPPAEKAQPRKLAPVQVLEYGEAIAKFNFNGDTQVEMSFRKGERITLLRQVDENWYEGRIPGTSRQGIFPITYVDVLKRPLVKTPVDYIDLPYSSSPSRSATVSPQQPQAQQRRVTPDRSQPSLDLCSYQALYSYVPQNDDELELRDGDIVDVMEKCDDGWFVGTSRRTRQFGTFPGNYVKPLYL

T2: GST–ponsin-2-F (the full length) (mouse, UniProt Q62417-3 1-724)
T2 sequence (looked up): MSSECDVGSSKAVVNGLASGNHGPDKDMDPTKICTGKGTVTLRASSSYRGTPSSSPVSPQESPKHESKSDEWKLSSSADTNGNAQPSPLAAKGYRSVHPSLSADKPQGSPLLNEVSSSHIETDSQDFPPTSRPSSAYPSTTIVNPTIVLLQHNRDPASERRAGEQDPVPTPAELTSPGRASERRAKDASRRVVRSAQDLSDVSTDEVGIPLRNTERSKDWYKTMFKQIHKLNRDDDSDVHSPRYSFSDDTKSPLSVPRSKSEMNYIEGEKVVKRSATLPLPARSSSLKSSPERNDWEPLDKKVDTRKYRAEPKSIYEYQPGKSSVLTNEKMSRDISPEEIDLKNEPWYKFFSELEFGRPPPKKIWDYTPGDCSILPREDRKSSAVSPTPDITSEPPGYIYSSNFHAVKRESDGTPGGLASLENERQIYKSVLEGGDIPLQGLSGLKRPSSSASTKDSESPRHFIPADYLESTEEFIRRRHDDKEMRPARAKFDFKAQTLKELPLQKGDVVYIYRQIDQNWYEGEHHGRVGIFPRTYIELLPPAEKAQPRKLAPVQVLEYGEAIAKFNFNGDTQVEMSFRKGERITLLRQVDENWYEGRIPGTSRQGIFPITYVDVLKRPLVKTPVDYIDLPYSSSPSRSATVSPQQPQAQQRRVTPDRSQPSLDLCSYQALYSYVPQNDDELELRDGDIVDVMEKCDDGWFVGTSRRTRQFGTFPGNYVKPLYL

B1: His6–l-afadin-C199 (domain or fragment, UniProt O35889-1 1631-1829, looked up)
chain: DRVRQEEDGRHQEEERVKRDAEEKRRQEEGYYSRLEAERRRQHEEAARRLLEPEEPGLSRPPLPQDYEPPSQSSAPSAPPPPPQRNASYLKTQVLSPDSLFTAKFVAYDDDDEEENYVPAGPNSYSGSAGTTAGTYDAPRDTREKLSRSQDADLPGSSGAPENLTFRERQRLFSQGQDVSDKVKASRKLTELENELNTK
B2: GST–ponsin-2-SH3(2+3) (the second and third SH3 domains) (domain or fragment, mouse, UniProt Q62417-3 543-724, looked up)
chain: AEKAQPRKLAPVQVLEYGEAIAKFNFNGDTQVEMSFRKGERITLLRQVDENWYEGRIPGTSRQGIFPITYVDVLKRPLVKTPVDYIDLPYSSSPSRSATVSPQQPQAQQRRVTPDRSQPSLDLCSYQALYSYVPQNDDELELRDGDIVDVMEKCDDGWFVGTSRRTRQFGTFPGNYVKPLYL

Legend:
Assay in all cases: pull-down
[1] = biological target: T1, GST–ponsin-2-C (the COOH-terminal half)
[2] = biological target: T2, GST–ponsin-2-F (the full length)
His6–l-afadin-C199 = biological target: B1

binding result [1] | binding result [2] | binding result (His6–l-afadin-C199) | Binder
binds | binds |  | B1
 |  | binds | B2
